Measured values published in paper PMC2651826 (Biochemistry, 2008).

Legend:
[1] = molecular target: RS1 from retinal membrane extracts (bovine (endogenous in retinal membranes)); assay: non-reducing SDS gel electrophoresis with western blot
[2] = molecular target: T1, wild-type RS1 (retinoschisin), secreted from HEK 293 cells (human), O15537; assay: as above; conditions: remark: other sources report otherwise
T1 chain: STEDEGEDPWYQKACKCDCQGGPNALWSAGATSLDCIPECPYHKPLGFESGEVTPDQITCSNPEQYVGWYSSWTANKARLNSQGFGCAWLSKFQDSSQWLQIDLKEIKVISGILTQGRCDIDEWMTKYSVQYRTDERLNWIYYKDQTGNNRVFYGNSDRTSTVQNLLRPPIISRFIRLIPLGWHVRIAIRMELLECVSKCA

[3] = molecular target: the molecule itself; assay: as above
[4] = molecular target: T2, recombinant RS1 secreted from stably transformed Sf21 insect cells (human), O15537; assay: non-reducing SDS gel electrophoresis with Coomassie Blue staining; conditions: remark: other sources report otherwise
T2 chain: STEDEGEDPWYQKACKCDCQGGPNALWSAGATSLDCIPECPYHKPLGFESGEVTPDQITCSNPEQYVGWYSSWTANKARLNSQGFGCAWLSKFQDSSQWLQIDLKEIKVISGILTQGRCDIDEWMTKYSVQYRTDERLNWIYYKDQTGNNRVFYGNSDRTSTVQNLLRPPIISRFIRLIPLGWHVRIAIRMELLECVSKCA

[5] = molecular target: T2, recombinant RS1 secreted from stably …; assay: non-reducing SDS gel electrophoresis with western blot; conditions: remark: other sources report otherwise
[6] = molecular target: T3, RS1 secreted from Weri-retinoblastoma cells (human (endogenous in Weri-Rb1)), O15537; assay: as above; conditions: remark: other sources report otherwise
T3 chain: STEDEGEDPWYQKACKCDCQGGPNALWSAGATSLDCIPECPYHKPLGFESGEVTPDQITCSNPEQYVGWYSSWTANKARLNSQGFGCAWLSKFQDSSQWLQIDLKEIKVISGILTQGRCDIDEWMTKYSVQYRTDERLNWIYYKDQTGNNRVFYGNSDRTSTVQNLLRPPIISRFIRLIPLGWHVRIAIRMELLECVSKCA

RS1 from retinal membrane extracts (natural protein)
stoichiometry N [1]: 8

B1: wild-type RS1 (retinoschisin), secreted from HEK 293 cells, O15537 24-224 (natural protein)
chain: STEDEGEDPWYQKACKCDCQGGPNALWSAGATSLDCIPECPYHKPLGFESGEVTPDQITCSNPEQYVGWYSSWTANKARLNSQGFGCAWLSKFQDSSQWLQIDLKEIKVISGILTQGRCDIDEWMTKYSVQYRTDERLNWIYYKDQTGNNRVFYGNSDRTSTVQNLLRPPIISRFIRLIPLGWHVRIAIRMELLECVSKCA
stoichiometry N [2]: 8

B2: RS1 C59S/C223S double cysteine mutant (natural protein, human, UniProt O15537 24-224, looked up)
chain: STEDEGEDPWYQKACKCDCQGGPNALWSAGATSLDSIPECPYHKPLGFESGEVTPDQITCSNPEQYVGWYSSWTANKARLNSQGFGCAWLSKFQDSSQWLQIDLKEIKVISGILTQGRCDIDEWMTKYSVQYRTDERLNWIYYKDQTGNNRVFYGNSDRTSTVQNLLRPPIISRFIRLIPLGWHVRIAIRMELLECVSKSA
stoichiometry N [3]: 2

B3: recombinant RS1 secreted from stably transformed Sf21 insect cells, O15537 24-224 (natural protein)
chain: STEDEGEDPWYQKACKCDCQGGPNALWSAGATSLDCIPECPYHKPLGFESGEVTPDQITCSNPEQYVGWYSSWTANKARLNSQGFGCAWLSKFQDSSQWLQIDLKEIKVISGILTQGRCDIDEWMTKYSVQYRTDERLNWIYYKDQTGNNRVFYGNSDRTSTVQNLLRPPIISRFIRLIPLGWHVRIAIRMELLECVSKCA
stoichiometry N [4]: 8 | stoichiometry N [5]: 8

B4: RS1 secreted from Weri-retinoblastoma cells, O15537 24-224 (natural protein)
chain: STEDEGEDPWYQKACKCDCQGGPNALWSAGATSLDCIPECPYHKPLGFESGEVTPDQITCSNPEQYVGWYSSWTANKARLNSQGFGCAWLSKFQDSSQWLQIDLKEIKVISGILTQGRCDIDEWMTKYSVQYRTDERLNWIYYKDQTGNNRVFYGNSDRTSTVQNLLRPPIISRFIRLIPLGWHVRIAIRMELLECVSKCA
stoichiometry N [6]: 8
